In the supplement of paper PMC7877785:
± gives the uncertainty stated by the source.

Experiment: self-splicing fitness, log relative to wild type (ln ratio); higher = more splicing; Tetrahymena group I intron in knt gene, E. coli kanamycin selection, DiMSum; sequences stand for … in CUCUCU…GGAGGGAAAAGUUAUCAGGCAUGCACCUGGUAGCUAGUCUUUAAACCAAUAGAUUGCAUCGGUUUAAAAGGCAAGACCGUCAAAUUGCGGGAAAGGGGUCAACAGCCGUUCAGUACCAAGUCUCAGGGGAAACUUUGAGAUGGCCUUGCAAAGGGUAUGGUAAUAAGCUGACGGACAUGGUCCUAACCACGCAGCCAAGUCCUAAGUCAACAGAUCUUCUGUUGAUAUGGAUGCAGUUCACAGACUAAAUGUCGGUCGGGGAAGAUGUAUUCUUCUCAUAAGAUAUAGUCGGACCUCUCCUUAAUGGGAGCUAGCGGAUGAAGUGAUGCAACACUGGAGCCGCUGGGAACUAAUUUGUAUGCGAAAGUAUAUUGAUUAGUUUUGGAGUACUCGUGGUCG
Procedure, shortened: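 Six replicate transformations of E. coli BL21(DE3) with a pET-22b(+) library were grown overnight at 37°C or 30°C. The library randomised all eight P1ex-region intron nucleotides, the intron lying in the knt kanamycin-resistance gene, and plates were LB agar with or without 25 μg/mL kanamycin plus 100 μg/mL carbenicillin, 50 μM IPTG and 0.2% rhamnose. Pooled colonies were amplicon-sequenced on an Illumina HiSeq 2500, and fitness is the DiMSum error-weighted combination of wild-type-normalised replicate fold changes, kanamycin versus none.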

Sequence	self-splicing fitness (ln) (30 °C)	self-splicing fitness (ln) (37 °C)
CGGUAGCAAUAUUACGCCUU	-0.779 ± 0.11	-0.542 ± 0.14
CGGUAGCAAUAUUACGCGCG	-2.49 ± 0.31	-1.87 ± 0.22
CGGUAGCAAUAUUACGCGGU	-3.28 ± 0.22	-2.96 ± 0.16
CGGUAGCAAUAUUACGCUCA	-0.279 ± 0.15	-0.399 ± 0.21
CGGUAGCAAUAUUACGGACA	-1.91 ± 0.32	-1.34 ± 0.29
CGGUAGCAAUAUUACGGAGU	-3.33 ± 0.28	-3.27 ± 0.35
CGGUAGCAAUAUUACGGCAA	-2.22 ± 0.19	-2.52 ± 0.28
CGGUAGCAAUAUUACGGCUA	-1.59 ± 0.2	-2.01 ± 0.28
CGGUAGCAAUAUUACGGGCA	-1.75 ± 0.24	-0.528 ± 0.2
CGGUAGCAAUAUUACGGGCU	-3.22 ± 0.13	-1.82 ± 0.14
CGGUAGCAAUAUUACGGUCC	-2.24 ± 0.15	-0.321 ± 0.17
CGGUAGCAAUAUUACGUCUA	-0.754 ± 0.073	-0.163 ± 0.081
CGGUAGCAAUAUUACGUGUC	-2.99 ± 0.34	-2.5 ± 0.21
CGUAAGCAAUAUUACGAAGA	-3.07 ± 0.31	–
CGUAAGCAAUAUUACGAAGC	-2.95 ± 0.23	-2.73 ± 0.26
CGUAAGCAAUAUUACGAAUG	-0.363 ± 0.081	-0.692 ± 0.088
CGUAAGCAAUAUUACGACAA	–	-1.32 ± 0.23
CGUAAGCAAUAUUACGACCC	-2.71 ± 0.38	-2.23 ± 0.23
CGUAAGCAAUAUUACGAGGA	–	-1.75 ± 0.33
CGUAAGCAAUAUUACGAGUU	-3.38 ± 0.17	-2.6 ± 0.23
CGUAAGCAAUAUUACGCAAU	-3.61 ± 0.24	-2.64 ± 0.23
CGUAAGCAAUAUUACGCACA	-1.37 ± 0.18	-0.0497 ± 0.23
CGUAAGCAAUAUUACGCAUU	-3.95 ± 0.28	-2.68 ± 0.18
CGUAAGCAAUAUUACGCGAU	-3.53 ± 0.2	-1.98 ± 0.18
CGUAAGCAAUAUUACGCGCC	–	-1.97 ± 0.35

Sequence	self-splicing fitness (ln) (30 °C)	self-splicing fitness (ln) (37 °C)
CGUAAGCAAUAUUACGCGGG	-2.35 ± 0.15	-2.72 ± 0.25
CGUAAGCAAUAUUACGCGGU	-1.99 ± 0.23	-1.69 ± 0.38
CGUAAGCAAUAUUACGCGUG	-1.79 ± 0.088	-0.855 ± 0.12
CGUAAGCAAUAUUACGCGUU	-3.69 ± 0.36	-2.31 ± 0.32
CGUAAGCAAUAUUACGGCGC	-2.21 ± 0.26	-2.2 ± 0.42
CGUAAGCAAUAUUACGGGCU	–	-1.92 ± 0.21
CGUAAGCAAUAUUACGGUUA	-2.29 ± 0.12	-1.72 ± 0.14
CGUAAGCAAUAUUACGUCGU	-3.41 ± 0.16	-1.63 ± 0.15
CGUAAGCAAUAUUACGUGCG	-2.95 ± 0.17	-2.17 ± 0.16
CGUAAGCAAUAUUACGUGGC	-4.85 ± 0.36	-2.39 ± 0.15
CGUAAGCAAUAUUACGUGUG	-1.29 ± 0.063	-0.745 ± 0.078
CGUCAGCAAUAUUACGAAAC	-3.63 ± 0.32	-1.6 ± 0.32
CGUCAGCAAUAUUACGAACU	-0.352 ± 0.095	-0.0116 ± 0.11
CGUCAGCAAUAUUACGACGG	-0.836 ± 0.081	-0.516 ± 0.12
CGUCAGCAAUAUUACGAGCC	-2.25 ± 0.48	–
CGUCAGCAAUAUUACGAGGA	-2.27 ± 0.19	-2.38 ± 0.28
CGUCAGCAAUAUUACGCAAG	-0.161 ± 0.07	-0.63 ± 0.091
CGUCAGCAAUAUUACGCAAU	-1.37 ± 0.1	-2.12 ± 0.24
CGUCAGCAAUAUUACGCACA	-0.869 ± 0.09	0.0106 ± 0.13
CGUCAGCAAUAUUACGCCCU	-1.89 ± 0.15	-0.223 ± 0.23
CGUCAGCAAUAUUACGCCGU	-2.49 ± 0.12	0.143 ± 0.11
CGUCAGCAAUAUUACGCCUA	-2.32 ± 0.29	-0.757 ± 0.18
CGUCAGCAAUAUUACGCGAG	-4.12 ± 0.36	-0.926 ± 0.17
CGUCAGCAAUAUUACGCGUC	-2.38 ± 0.42	–
CGUCAGCAAUAUUACGGCAA	-1.75 ± 0.14	-1.89 ± 0.13
